According to the supplement of paper PMC9170038:

These sequences were tested on K4 kissing-loop RNA reporter (assay: apparent KD of K4 kissing-loop reporter; higher = weaker reporter binding). Settings: Eterna round: R107; input ligand: theophylline 20 uM.
Description: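 RNA-MaP round R107: designed RNA switches with theophylline, tryptophan, arginine or FMN aptamers are transcribed on-chip within common flanks. They are titrated with a labelled K4 kissing-loop RNA reporter in RNA-MaP buffer (100 mM Tris pH 7.5, 80 mM KCl, 4 mM MgCl2), without ligand or with the indicated ligand. Median apparent KD per design.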
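Also: bound reporter read as fluorescence of individual clusters on recovered sequencing chips by microscopy, with normalized cluster intensities fitted with a binding model.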

| Sequence | apparent KD of K4 kissing-loop reporter |
| --- | --- |
| UCUGGAGCAUAUGAUACCAGCAGUGAGAGACAGGAAGUAUAGUGAUGUUAUAUGAGAGAAUGCCCUUGGCAGCGUGUGUAGUGGG [SSTheophylB.N] | 170 nM |
| AAGUGAUGUUGUAGUGAUGUUGUGAUGUUGCAGGAUAUAUAGUGAUGUAGAAGGGUAAGUACUGAUGUUGUUAGUGAGUGAUGUU [wwzrrmullin] | 81.1 nM |
| UGGUUUAACUGAAGGAGCGGCAAUUGAUAAGUAGAUAUAGUGAUGUUAUAUAAGAUAGAGAGCCAGGUAGGUCGCAGAGGUGUUU [ExArgB.Q] | 253 nM |
| ACCUACGAUCACAAAAGUGAUUGUAGGAUCUAGGAUAUGCUGAAAAGCAGAAGGAGAGUGAUGUUCUCAACUCACGAAAGUGAGA [FmnAX 1 #OpenEnded #K4Late] | 182 nM |
| CCAUCGCUAUUCGAUACCAGUCAUUAAAUCUUUGGUUUAAUAAAGGAGUGAUGUUCCCAAGACCCUUGGCAGCGAAUAGUGAUGG [Theophylline B K4 9] | 166 nM |
| GGCUCCUACGCAGGAUAUAGUAGCCGAGAGUGAUGUUCUACGGCGUUUGCCGAUUUAGUCACAGAUCUAGAAGGGUGUAGGAGCC [XFMN-B PiClone] | 756 nM |
| AGACUUCACCGAAGGAGCGACGUAGCCUAGUGAUGUUAGGCAAGAGAGAAAUCUCUUAUACGUCAGGUAGGUCGCGGUGAAGUCA [Omei KL Arginine B SS C v2] | 160 nM |
| GUAGGAUGAGGAGGAGGAUGAAUUACUGAAGGAGCGCAAAGAAAUGCAGGUAGGUCGCGGUAAAGAAGUAUAGUGAUGUUAUAUC [#08 K4 Arginine A Same State] | 700 nM |
| CUCUUCUUUCUUUUAGUGAUGUUAAAUUAGCGAGGACCGGUACGGCCGCCACUCGUAUAGCUGGAAUGACUGUGCGAGGGUUUGU | 522 nM |
| AGACUACCACACUGUCAAUAGACAGUGAACUAGGAUAUGCUGAUAAGCAGAAGGAGUGAUGUUCCCAGGUAGUCAAUAAAAUAAU [FmnAX 13 C66] | 331 nM |
| GGACGCCGGUCGGCCGCCACUCACAGCAGCCAGUGAUGUUGGAUUGUAGCGGAGUGAUGUUCCGAGAGGACCGGGACUGCAGUCU [Same State Tryptophan B GF 11] | 114 nM |

Same assay, conditions: Eterna round: R107; input ligand: tryptophan 2.4 mM

| Sequence | apparent KD of K4 kissing-loop reporter |
| --- | --- |
| CUGUUUGGUUGAGAGGUUGGGCGGAAUGAUACCAGUAUAUAAGAAUACCCUUGGCAGCAUAAGAAAGAUAUAGUGAUGUUGUAUA [SSTheophA.K] | 417 nM |
| UCGCCAAAGUCGGCCGCCACUCCGGGCCCUAUAAAUGGGCGCAGUGAUGUUGCGGCUAGGCCUCUGAGGACCGGGACUUUGUAAA [Tiesgeza] | 133 nM |
| AAUACCUGAGUGAUGUUCAGGGAAUCAGAAGGAGCGUCAAUUAUGACAGGUAGGUCGCUGAAUACAUGUGUGUAUACACAUGUAC [Arg A SS t4] | 229 nM |
| AAUAGGGAUAGUGAUGUUAUCCCUUAUGAUACCAGUGCCAUCGGACACCCUUGGCAGCAUACGGGCAGUGAUGUUGUUCUUGGAG [Exclusion Theophylline A GF 15] | 79.3 nM |
| UUGGACCUUAGCCUCAAUAGAACUUUGUUACGAGGACCGGUACGGCCGCCACUCGUCGGGCUCCGAUAGCCAGUGAUGUUGGCAA [theeternabot_sameState_KL_Trp_A_16] | 212 nM |
| AGGAUGUAGUGAUGUUAUAUAAGAAGUAAACGAGGACCGGUACGGCCGCCACUCGAAACGGCUACUAGCGCGUUGCGAGGUGUGC [ExTryptoA.Cf] | 402 nM |
| GUCUGUGUACUAGGAUAUGGUUGCAGGCAGUCAGGUCGCCUUUUCGGCGGCCAGUGAUGUUGGUGGCCAGAAGGAGUACGUGAUG [Raorin] | 699 nM |
| UGACAUUGCUCAGAUACCAGACUUGAGGAUCACCCAAGUGCCAAAACGUACUAAAUAAAAGUCCCUUGGCAGCUGAGCAAUGUCU [TheoBX 13] | 54.1 nM |
| CGCCGAUUGUCGGAGUGAUGUUCCCGGGAUACCAGCACGUCGUCAUGCCCUUGGCAGCCCAACAGACCAUUUUAAAGGCUAGCUG [theeternabot_sameState_KL_Theo_A_35] | 158 nM |
| CUCGUGGGUUUGAGAGGGUUUGUGGGAAGUGAGGAUAUUUAGGGAGAAAGAAGGCACUAUAAAAUAUAGUGAUGUUAUAUAAGGG [SSFMNA.L] | 198 nM |
| AAUUAAUACAGAAGGAGCGUGAAAUUAUCUACUUUUAACUUAGCGAGUGAUGUUCGUUUUUCACAGGUAGGUCGCUGUAUAUUUA [JR_ExcArginiB_Sub009] | 152 nM |
| UAAAUAAAAUCCUAGUGAUGUUAGGAUAUGUAGGAUAUCGGGAUACCGAGAAGGACAGAAGGAGGAGUGAUGUUCCUCAAUAAAU [FmnAX 30 #DoubleAptamer #DoubleK4 #OpenEnded] | 59.5 nM |
| AUCAUUAGUUCGGCCGCCACUCCAGUGAUGUUGGAGGGACGCAUAAUAUGCGCGCGGCCAACUAGGAGGACCGGGAACUUUAAGC [Intionge] | 103 nM |
| GAAUAAUAAGUAGCAGUGAUGUUGCUACUACGAGGACCGGUACGGCCGCCACUCGAAUACGAGUGGACACUGCUACUACCACUCG [(H1)-(H2)-(Trp1)-(Trp2)-(T)'-(H)'-(T)''_Design8] | 170 nM |
| AGACUUCACCGAAGGAGCGACGUGGUCUAGUGAUGUUAGACACGAGAGAAAUCUCGUAUACGUCAGGUAGGUCGCGGUGAAGUCA [Omei KL Arginine B SS C v9] | 133 nM |
| UUUAAAUAUAGUGAUGUUAUAUAACAAUGACGAGGACCGGUACGGCCGCCACUCGAGAGAGAUAAUGAUAAAAUAAAUAAUUUUC [AstrosSSTrypA#1] | 374 nM |
| UUUAAAUAUAGUGAUGUUAUAUAACAAUGACGAGGACCGGUACGGCCGCCACUCGAGAGAGAUAAUGAUAAAAUACAUAAUUUUC [AstrosSSTrypA#2] | 474 nM |
| CACGAUGAAUUCUCUAGGAGUGAUGUUUUUCGAGGACCGGUACGGCCGCCACUCGGACGACGAGUGUGGUAGCGGGCUGAAGACU [zgullin] | 561 nM |
| UAUUCUGUUCGAAAGAACGGAAUUUCGGAAGGAGCGAGAGAAAUCUCAGGUAGGUCGCCGAAAUUAUUAGAUAGUGAUGUUAUCU [Arginine A K4 4] | 158 nM |
| ACAGUUGCUAGUGAUACCAGACUAGCACUACGUAGUAUGUCAAGUGAUGUUUGACAACUAGUCCCUUGGCAGCGCGAUACGACUG [#12 K4 Theophylline B Same State] | 169 nM |
| AAGAGAUAGGGAGGAUAUGCCCUAUUGAGAACCGAGUGAUGUUCGGUAGGACAAAUAGUCCACAGGGUAGAAGGCCCACAUCACA [SS FNM B Tesla 2] | 267 nM |
| GUGGUUUACGUAGGAUAUCGAUGAUGAGUAAAUGGAGUGAUGUUCCGAGAUUGAAUAUGAGAUGAGCGAGAAGGGCGGUUUAUGC [FMN B Same State; Euporia Solution 2] | 29.5 nM |

| Sequence | apparent KD of K4 kissing-loop reporter |
| --- | --- |
| UAAGACAUGAAAGGAUAUCCGAUAUGGAGCCUUUAGUGAUGUUAGGAGCUAGCCGUAGACAAGAUCGGAGAAGGUUCAACCCACA [theeternabot_sameState_KL_FMN_B_13] | 640 nM |
| CCGGCCCAGCCGGAUACCAGUGCGCCGCAGGGAACGGCGGGCCCAGAGUGAUGUUCGGGACACCCUUGGCAGCCGCCUGGGUCGU [#2 Same State - Theophylline B Attempt #28 (HarryS)] | 274 nM |
| UAUACGAAGCAGUGAUGUUGCUUAUGAGAAGGAGCGCACGAAAGUGCAGGUAGGUCGCUCAGCCAUGUGGACGAAAACGUCCACA [whbob_SS_Arginine_A_sa110] | 93 nM |
| GUGCGGUGGAGGCUACCGCUACUCUGAGAAGGAGCGCAGAUGACUGCAGGUAGGUCGCUUAGAGCUUGCAGUGAUGUUGCAAGUU [Teorzaqu] | 140 nM |
| UGGAGUUGACGAAAAGUCAACUCCUGAGAAGGAGCGGACGAAAGUCCAGGUAGGUCGCUCACUACCAGUGAUGUUGGUAAUUCAA [#OpenEnded 3] | 234 nM |
| GGGUAUUACGGAGGAUAUGCACUGAGGAGGAGAAUAUAGUGAUGUUAUAUAAGAGGAAGGAGAAGAGUAGAAGGCCGUGGUAUUG [SSFMNB.H] | 190 nM |
| AUUUAAUGUAUAGAUUAUAUACAUUAUUCAGAGGAUAUGCUUUGAAGCAGAAGGCUGGAUGUAGUGAUGUUGCAAUUUUAAUUUA [JR_SSFMNA_Sub006] | 163 nM |
| CCAGGACGAUGAGGAGGAUGAAUUACUGAAGGAGCGCAUAUGGUUGCAGGUAGGUCGCGGUGAACAAGUAUAGUGAUGUUAUAUC [SSArgA.S] | 321 nM |
| CAGAUCACAGAGUGAUGUUCUGUGUCCGAAGGAGCGCGCGAGAGCGCAGGUAGGUCGCGGAUACAGUUGACGUACCAUCUAGACA [Arg A Ex t3b] | 269 nM |
| GAAUUAUGUAGAAGGAGCGUCAGAAGGUAUAGGUGCGAGUGAUGUUUGGACCUGUUAAUUUGACAGGUAGGUCGCUACAGAAGGA [KL-SSArg B20 #analogue] | 320 nM |
| UCUGGAGCAUAUGAUACCAGCAGUGAGAGACAGGAAGUAUAGUGAUGUUAUAUGAGAGAAUGCCCUUGGCAGCGUGUGUAGUGGG [SSTheophylB.N] | 104 nM |
| AAGUGAUGUUGUAGUGAUGUUGUGAUGUUGCAGGAUAUAUAGUGAUGUAGAAGGGUAAGUACUGAUGUUGUUAGUGAGUGAUGUU [wwzrrmullin] | 86.6 nM |
| UGGUUUAACUGAAGGAGCGGCAAUUGAUAAGUAGAUAUAGUGAUGUUAUAUAAGAUAGAGAGCCAGGUAGGUCGCAGAGGUGUUU [ExArgB.Q] | 189 nM |
| ACCUACGAUCACAAAAGUGAUUGUAGGAUCUAGGAUAUGCUGAAAAGCAGAAGGAGAGUGAUGUUCUCAACUCACGAAAGUGAGA [FmnAX 1 #OpenEnded #K4Late] | 173 nM |
| CCAUCGCUAUUCGAUACCAGUCAUUAAAUCUUUGGUUUAAUAAAGGAGUGAUGUUCCCAAGACCCUUGGCAGCGAAUAGUGAUGG [Theophylline B K4 9] | 207 nM |
| GGCUCCUACGCAGGAUAUAGUAGCCGAGAGUGAUGUUCUACGGCGUUUGCCGAUUUAGUCACAGAUCUAGAAGGGUGUAGGAGCC [XFMN-B PiClone] | 1000 nM |
| AGACUUCACCGAAGGAGCGACGUAGCCUAGUGAUGUUAGGCAAGAGAGAAAUCUCUUAUACGUCAGGUAGGUCGCGGUGAAGUCA [Omei KL Arginine B SS C v2] | 150 nM |
| GUAGGAUGAGGAGGAGGAUGAAUUACUGAAGGAGCGCAAAGAAAUGCAGGUAGGUCGCGGUAAAGAAGUAUAGUGAUGUUAUAUC [#08 K4 Arginine A Same State] | 598 nM |
| CUCUUCUUUCUUUUAGUGAUGUUAAAUUAGCGAGGACCGGUACGGCCGCCACUCGUAUAGCUGGAAUGACUGUGCGAGGGUUUGU | 790 nM |
| AGACUACCACACUGUCAAUAGACAGUGAACUAGGAUAUGCUGAUAAGCAGAAGGAGUGAUGUUCCCAGGUAGUCAAUAAAAUAAU [FmnAX 13 C66] | 223 nM |
| GGACGCCGGUCGGCCGCCACUCACAGCAGCCAGUGAUGUUGGAUUGUAGCGGAGUGAUGUUCCGAGAGGACCGGGACUGCAGUCU [Same State Tryptophan B GF 11] | 137 nM |
